Nine molecules from patent publication US20160289747, “DETECTION OF NUCLEIC ACIDS BY STRAND INVASION BASED AMPLIFICATION” (ORION DIAGNOSTICA OY, published 2016) can be followed below.

Data set [1] addresses T1, gp32 single-stranded DNA binding protein (Enterobacteria phage T4, UniProt P03695 P03695:1-301).
T1 sequence: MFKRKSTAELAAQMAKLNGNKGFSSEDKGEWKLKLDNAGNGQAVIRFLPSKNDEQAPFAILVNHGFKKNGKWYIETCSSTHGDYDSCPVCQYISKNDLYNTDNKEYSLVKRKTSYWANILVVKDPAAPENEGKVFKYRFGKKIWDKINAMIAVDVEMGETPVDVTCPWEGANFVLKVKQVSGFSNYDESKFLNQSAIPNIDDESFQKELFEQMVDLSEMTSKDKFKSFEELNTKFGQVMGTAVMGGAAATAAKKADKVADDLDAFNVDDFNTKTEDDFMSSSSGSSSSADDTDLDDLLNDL
Description: little or no fluorescence increase. Conditions: tags: New England Biolabs; label: fluorophore and quencher. On the procedure: (§1) The effect of the single-strand binding protein, bacteriophage T4 gp32 (New England Biolabs), on signal from the same oligonucleotide probes used with UvsX was also elucidated. Similar concentrations of oligonucleotide probes to those used with UvsX were incubated in the presence or absence of 0.25 mg/ml of gp32 and 200 nM complementary template ((SEQ ID NO: 34 for probes with SEQ ID NO 1-8 or SEQ ID NO: 44 for probes with SEQ ID NO: 9 or 10) in a buffer containing 20 mM Tris-acetate pH 7.9, 50 mM potassium acetate, 10 mM Magnesium Acetate and 1 mM DTT.

The target of data set [2] is T2, UvsX recombinase (Enterobacteria phage T4, UniProt P04529 P04529:1-391). Description: probe remained quenched; Mg, ATP, 40 C. As to conditions: label: fluorophore and quencher. As to the method: (§2) The oligonucleotide probes were incubated in the presence or absence of 200 nM complementary template (SEQ ID NO: 34 for probes with SEQ ID NO 1-8, or SEQ ID NO: 44 for probes with SEQ ID NO 9 or 10) and 5 μM UvsX in buffer containing 20 mM Tris-acetate pH 8.0, 10 mM Magnesium acetate, 2 mM ATP, 60 mM Tris-Phosphocreatine and 0.025 U/μl Creatine Kinase. Fluorescence was measured after 20 minutes incubation at 40 degrees centigrade.

Data set [3] has as its target T3, RecA (Escherichia coli, UniProt P0A7G6 P0A7G6:2-353). Description: no significant fluorescence increase; Mg, ATP. Conditions: tags: New England Biolabs; label: fluorophore and quencher. On the procedure: (§3) The effect of Escherichia coli recombinase, RecA (New England Biolabs) on signal from oligonucleotide probes was also elucidated (FIG. 1d). Similar concentrations of oligonucleotide probes to those used in FIGS. 1a and 1b were incubated in the presence or absence of 100 μg/ml of RecA in a buffer containing 70 mM Tris-HCl pH 7.6.10 mM MgCl₂, 5 mM DTT and 10 mM ATP. […] However, the increase was not as high as that seen with T4 UvsX.

The target in data set [4] is T1, gp32 single-stranded DNA binding protein. Description: fluorescence dequenching; 0.25 mg/ml gp32, Mg, K acetate. Conditions: tags: New England Biolabs; label: fluorophore and quencher. On the procedure: as §1
Data set [5] addresses T2, UvsX recombinase. Description: fluorescence dequenching; 5 uM UvsX, Mg, ATP, 40 C. Conditions: label: fluorophore and quencher. On the procedure:
as §2

The target in data set [6] is T3, RecA. Description: fluorescence increase, less than UvsX; Mg, ATP. Conditions: tags: New England Biolabs; label: fluorophore and quencher. On the procedure:
as §3

T2 sequence (P04529 whole entry, one chain of several): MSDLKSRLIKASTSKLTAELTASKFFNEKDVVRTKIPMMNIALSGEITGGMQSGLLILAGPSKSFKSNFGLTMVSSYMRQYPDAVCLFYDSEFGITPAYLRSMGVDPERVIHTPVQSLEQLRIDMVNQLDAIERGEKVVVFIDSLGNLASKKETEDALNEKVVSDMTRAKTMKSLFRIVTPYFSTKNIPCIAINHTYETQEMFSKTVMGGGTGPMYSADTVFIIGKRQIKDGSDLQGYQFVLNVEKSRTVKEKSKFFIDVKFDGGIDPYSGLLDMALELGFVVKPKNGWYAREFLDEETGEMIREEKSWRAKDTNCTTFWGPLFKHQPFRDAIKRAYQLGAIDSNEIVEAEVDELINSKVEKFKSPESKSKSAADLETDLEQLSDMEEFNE
T3 sequence (P0A7G6 2-353, one chain of several): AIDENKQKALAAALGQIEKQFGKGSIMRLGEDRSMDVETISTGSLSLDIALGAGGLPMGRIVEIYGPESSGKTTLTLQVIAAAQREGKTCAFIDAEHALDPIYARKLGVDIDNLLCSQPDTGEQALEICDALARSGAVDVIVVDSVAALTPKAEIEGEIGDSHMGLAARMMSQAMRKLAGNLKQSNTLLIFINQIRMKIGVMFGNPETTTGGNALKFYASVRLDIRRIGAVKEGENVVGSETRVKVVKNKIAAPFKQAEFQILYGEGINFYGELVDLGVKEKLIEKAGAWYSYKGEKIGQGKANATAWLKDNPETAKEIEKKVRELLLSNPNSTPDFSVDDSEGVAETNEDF

B1: 2'-fluoro RNA 16 (ssRNA)
RNA: AGCCGAUGACUAAUGC
modifications: 2'-F
As to B1, the binding result (in data set [1]; with UvsX recombinase [2]) was “no binding” each time.

B2: RNA 16 (ssRNA)
RNA: AGCCGAUGACUAAUGC
For the molecule B2, the binding result (in data set [1]; with UvsX recombinase [2]) was “no binding” each time.

B3: 2'-fluoro RNA 21 (ssRNA)
RNA: ACGAAAGCCGAUGACUAAUGC
modifications: 2'-F
B3: the binding result (in data set [1]; with RecA [3]; with UvsX recombinase [2]) was “no binding” each time.

B4: 2'-O-methyl RNA 16 (ssRNA)
RNA: AGCCGAUGACUAAUGC
modifications: 2'-OMe
With B4, the binding result (in data set [1]; with UvsX recombinase [2]) was “no binding” throughout.

B5: RNA 21 (ssRNA)
RNA: ACGAAAGCCGAUGACUAAUGC
Consider B5, for which the binding result (in data set [1]; with RecA [3]; in the data set with UvsX recombinase [2]) was “no binding” throughout.

B6: LNA 12 (XNA)
RNA: AGUUGAUGUGUA
modifications: LNA
With B6, the binding result (in data set [1]; with RecA [3]; in the data set with UvsX recombinase [2]) was “no binding” throughout.

B7: 2'-O-methyl RNA 21 (ssRNA)
RNA: ACGAAAGCCGAUGACUAAUGC
modifications: 2'-OMe
Turning to B7, the binding result (in data set [1]; in the data set with RecA [3]; with UvsX recombinase [2]) was “no binding” throughout.

B8: DNA 16 (ssDNA)
DNA: AGCCGATGACTAATGC
As to B8, the binding result (in data set [4]; with UvsX recombinase [5]) was “binds” throughout.

B9: DNA 21 (ssDNA)
DNA: ACGAAAGCCGATGACTAATGC
In the case of B9, the binding result (in the data set with RecA [6]; in data set [4]; with UvsX recombinase [5]) was “binds” each time.
